The target in test [1] is thrombopoietin receptor MPL on Ba/F3-HuMpl cells (human) (UniProt P40238).
Test [2] addresses T1, thrombopoietin receptor MPL on Ba/F3-HuMpl cells (human, UniProt P40238 26-635, N-glycans (consensus sites N117, N178, N298, N358)).
T1 sequence: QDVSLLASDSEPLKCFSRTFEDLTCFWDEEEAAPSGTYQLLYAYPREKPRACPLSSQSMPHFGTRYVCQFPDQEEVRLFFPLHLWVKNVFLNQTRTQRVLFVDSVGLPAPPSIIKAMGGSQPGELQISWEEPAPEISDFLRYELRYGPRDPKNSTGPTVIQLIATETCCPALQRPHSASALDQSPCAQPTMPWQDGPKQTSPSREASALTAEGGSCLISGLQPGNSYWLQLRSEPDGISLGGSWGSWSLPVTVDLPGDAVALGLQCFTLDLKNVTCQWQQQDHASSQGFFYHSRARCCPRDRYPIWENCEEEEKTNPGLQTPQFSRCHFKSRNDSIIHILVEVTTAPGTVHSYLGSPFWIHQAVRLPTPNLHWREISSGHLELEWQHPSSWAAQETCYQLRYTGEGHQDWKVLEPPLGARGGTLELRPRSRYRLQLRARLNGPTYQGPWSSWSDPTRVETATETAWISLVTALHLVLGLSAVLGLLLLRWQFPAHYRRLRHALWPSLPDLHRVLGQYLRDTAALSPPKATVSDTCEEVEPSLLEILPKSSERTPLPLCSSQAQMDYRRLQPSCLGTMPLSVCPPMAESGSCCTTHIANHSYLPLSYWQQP
Briefly: cell-based or functional assay.

In test [1], “PA-IIL (from UniProt Q9HYN5 1-115) (natural protein)” yielded a proliferation of Ba/F3-HuMpl cells, EC50 of 17.5 µg/mL.

B1: N-terminal His-tagged recombinant ThC (rThC) (natural protein)
chain: TACTTGPQTISFPAGLIVSLNASVQSSRNESVEVKDSNGNTVSRGSGSSSSGGTFTVINMEPPTFISDGNDYTVELSPQATPGILQTESSRVDNGRLIWQNYAFGANDGGCIVGDRDFNDVFVLITGLVRG
Take B1: in test [2], the “proliferation of Ba/F3-HuMpl cells, EC50” value came to 0.26 µg/mL.

Source of the values: paper doi:10.1101/2021.10.29.466502 (bioRxiv, 2021).
